The nature of this series: soluble on expression in E. coli; label from the status in PepcDB or PDB records.
With “MANSLAIIADPKTGKTYKREIPSERMSSLIGRKIGEEVDGVFFDLVGYKMKITGGSSVDGFAMRPDLQTQGKKQILVKYTSGYRGKNGIRKRITARGSIIGSDITQINLKITQYGPTLEHHHHHH”, the “soluble on expression in E. coli” value is given as “not soluble”.
The value for “RAKKETTMTDVRIQALHFDATDQLKDFVQKKISKLNRLSDGITGAEVVLKLVKPETVQNKEASIRLYIPGDDLFAEKIADTFEEAIDLTVDALKRQIEKRKEQRK” was “not soluble”.
The same measure for “MGSDKIHHHHHHMTPEKIEQIFRSFKEKKIAVIGDVMIDKYIFGHVSRISPEYPVPVVDVNRESSRLGGAANVAVNIHALGAEALLIGVTGDDTERRNLEALMTEHGLNPAMLAADSTRPTTCKTRILSQNHHITRVDYESRTPVDAELEKRLLGMFMEIANAVDAVVLEDYNKGVLTPSLIVSLIAACRERNKPVLVDPKLKGFFSYGGCSVFKPNLSELAASLGIPVANDDREVEQACLLLGEKLTVESLVVTRSEKGMTVYDGSFTHIPALSLDVADVSGAGDTVIGTLALGLASGLDLVTSTRIANLAANTVCQEVGAVPVRPDKLFSACLAHLQ”: “not soluble”; for “MHSGDFMSVSTPTRDDFAALLEESFASNDLAEGYVAKGIVTAIEKDVAIVDVGLKVEGRVPLKEFGAKSKDGTLKVGDEVEVYVERIENALGEAVLSREKARREESWVKLEAKFEAGERVEGVIFNQVKGGFTVDLDGAVAFLPRSQVDIRPIRDVTPLMHNPQPFEILKMDKRRGNIVVSRRTVLEESRAEQRSEIVQNLEEGQVVDGVVKNITDYGAFVDLGGIDGLLHVTDMAWRRVNHPSEILNIGQQVKVQIIRINQETHRISLGMKQLESDPWDGISAKYPVGKKISGTVTNITDYGAFVELEPGIEGLIHISEMSWTKKNVHPGKILSTSQEVDVVVLEVDPSKRRISLGLKQTLENPWQAFAFSHPAGTEVEGEVKNKTEFGLFIGLEGDVDGMVHLSDLDWNRPGEQVIEEFNKGDVVKAVVLDVDVEKERISLGIKQLGKDAVGEAATSGDLRKNAVVSCEVIAVNDGGVEVKLVNHEDITSFIRRNDLARDRDDQRPERFAVGQVFDARVVNFSKKDRKVMLSIKALEIAEEKEAVAQFGSSDSGASLGDILGAALKNRGELEHHHHHH”: “soluble”.
The same measure for “MQKGVYIMNSTSSIITIGREYGSGGRQIGQEVAKYFGIKCYDKELLEHAANDSGICKELFEHHDEKPTNSFLYSLVMDTYSFGYSSSGFSDMPMNHKIFLAQFDAIKKLAGEGPCVMVGRCADYALADWNDCFSIFVHADLDWRINRIASKHGKTPKEAKDMITKTDKSRASYYNYYTNKKWGAARSYNLCIDSGKLGIDYATEAIIESIKIFDRTKISK”: “not soluble”.
For “MSLSSSCIEEVSVPDDNWYRIANELLSRADITINGSAPSDIRVKNPDFFKRVLQEGSLGLGESYMDGWWECERLDIFFSKVLRAGLENQLPHHVKDTLRILGARLINLQSKKRAWIVGKEHYDLGNDLFSRMLDPYMQYSCAYWKDADTLEAAQQAKLKLICEKLQLQPGMRVLDIGCGWGGLSQYMATHYGVSVVGVTISAEQQKMAQTRCEGLDVSILLEDYRDLNDQFDRIVSVGMFEHVGPKNYNTYFEVVDRNLKPDGLFLLHTIGSKKTDHNVDPWINKYIFPNGCLPSVRQIAEASESHFVMEDWHNFGADYDTTLMAWHERFINAWPEIAGNYNERFKRMFSYYLNACAGAFRARDIQLWQVVFTRGVENGLRVPREGHHHHHH”, the “soluble on expression in E. coli” value was “soluble”.
The value for “MSKIELKQLSFAYDNQEALLFDQANITMDTNWKLGLIGRNGRGKTTLLRLLQKQLDYQGEILHQVDFVYFPQTVAEEQQLTYYVLQEVTSFEQWKLERELTLLNVDPEVLWRPFSSLSGGEKTKVLLGLLFIEENAFPLIDEPTNHLDLAGRQQVAEYLKKKKHGFILVSHDRAFVDEVVDHILAIEKSQLTLYQGNFSIYEEQKKLRDAFELAENEKIKKEVNRLKETARKKAEWSMNREGDKYGNAKEKGSGAIFDTGAIGARAARVMKRSKHIQQRAETQLAEKEKLLKDLEYIDSLSMDYQPTHHKTLLTVEELRLGYEKNWLFAPISFSINAGEIVGITGKNGSGKSSLIQYLLDNFSGDSEGEATLAHQLTISYVRQDYEDNQGTLSEFAEKNQLDYTQFLNNLRKLGMERAVFTNRIEQMSMGQRKKVEVAKSLSQSAELYIWDEPLNYLDVFNHQQLEALILSVKPAMLVIEHDAHFMKKITDKKIVLKS” was “not soluble”; that for “MGSDKIHHHHHHMKALVEDDLFSKIGLDDVNSGVYDGEWVKPSGKMLTVKSPIDGSEVAKISLATRADYDRLVSRAIEEFKKWRMIPAPKRGLIIREIGDELRKEKKNLGKIVTIEAGKTPSEGEGEIQEMIDISDLALGLSRQLYGLTIASERPYHRMYEQWVPLGPVAVITSFNFPASVWSWNAFIAAVDGDVVIWKPSSKAALTAVAVMKVIERVLKRNNAPNIFFLMVSSGSEGGDWITNDPRIPLVSFTGSVPVGKKISENVAKRLGKSILELGGNNGAIVSDKADIDLALRGVVFGALATAGQRCTTTRRVIVQEKIYDQFLEKLKNAYSTIKVGDPREKGVLVGPLIDEDAVKDYEHAIDLAIKQGGKLIFGGKRITIKGLEGGHYVMPTIIEAKPDMPIVKEETFASILYVMKYRTIEEAIEIHNSVPQGLSSSIFTTDLREEEAFLSPYGSDCGLANVNTSTAGAEIGGAFGGEKDTGGGRESGSDAWKYYMRRQTVTKNWGQTLPLAQDVVFEF” was “not soluble”.
The value for “MEDLKHSDALVREQATKKLWRIWFQQKGMYGLEKIDQSQKLLDAGEITEAEVMLTQLIQEQPDFAEAWNRRAFLYYSMGEYQKSLADCQMVIQINPVHFGALHGIGLCYAALGKYAKAIKAFKRALEIQPYSLVNQKLILECTFRLSLEHHHHHH” was “soluble”.
For “MSLDREGLNTHLKSGATTVCRAWEVRRTDGVTLGFTDHDRDLSFDGMTFRAGTGLSARSLMQSTGLAVDNSEALGALSSDAVREADIESGRYDGAEVRAWLVNWADTTERALQFRGSLGEIRRAGGAFEAELRGLTEALNQPLGRVFQKPCSAVLGDAACKFDLSTAGYAVEIDVETLRDGQLFAWASLDGFAPGWFTGGRLTVLGGAGAGLWAPIRSDSLNARREITLWQPIRADIQPGDLVRLSAGCDKRQSTCRLKFDNLVNYQGFPDIPGEDWMVAVPKRTGQNTGGSRREGHHHHHH”, the “soluble on expression in E. coli” value is recorded as “soluble”.
The value for “MALADISGYLDVLDSVRGFSYLENAREVLRSGEARCLGNPRSEPEYVKALYVIGASRIPVGDGCSHTLEELGVFDISVPGEMVFPSPLDFFERGKPTPLVRSRLQLPNGVRVWLKLEWYNPFSLSVKDRPAVEIISRLSRRVEKGSLVADATSSNFGVALSAVARLYGYRARVYLPGAAEEFGKLLPRLLGAQVIVDPEAPSTVHLLPRVMKDSKNEGFVHVNQFYNDANFEAHMRGTAREIFVQSRRGGLALRGVAGSLGTSGHMSAAAFYLQSVDPSIRAVLVQPAQGDSIPGIRRVETGMLWINMLDISYTLAEVTLEEAMEAVVEVARSDGLVIGPSGGAAVKALAKKAAEGDLEPGDYVVVVPDTGFKYLSLVQNALEGAGDSV” was “soluble”; that for “SIPYQEWHSQLQSLYDSQIFHNWALCQDVHLNDEKDGLLLRLIPTRQLQKNTERIENKLLNHIELYLTYSKVYNEPLLLLRIWEEKSIDGIPMTKLMLPTDIESLLDVQGKFQLGLDTIINLEGSVWYSFHPCDTSCIVGDQAEFMSTYLRRWVSIFIFSWLGYEDS” was “soluble”.
The value for “FDKLGNSAAIQEMNREVEAAAKRTSPVFLTGEAGSPFETVARYFHKNGTPWVSPARVEYLIDMPMELLQKAEGGVLYVGDIAQYSRNIQTGITFIIGKAERCRVRVIASCSYAAGSDGISCEEKLAGLFSESVVRIPPLS” was “soluble”; that for “MGSDKIHHHHHHMLTHSTNPRGGVVHAMQLSEALTALGHAVTLHAPDPKGTGFFRSPACGAACFPVPPALADMTALVEQRIADYIGHFEQADNRDFDVFHAHDGISGNALATLKSRGLIPSFVRTIHHIDQFEDPRLMVLQDRSIQRADAFLAVSAAWQAILRDSYGVDAKVVGNGVDNRRFSPAWSGEQTALRDRIGLHAGAVFLSIGGIEARKNTLGILDAFRQLRAVKPDAQLVIAGGVSLLDHRDYQEEFQSHLRALRDDAAAVHIIGAVSDDDMPNLYRLADALVFPSLKEGFGLVVLEAMASGVPAIVPSIAPFIDYLSGDDALWCDPLHSASIAEAMALALVPEIRERIIPRGLEVASRFTWRRVAEAHLSTYATLKEAAHA” was “not soluble”; that for “MGSDKIHHHHHHMKKSIVVFEVEGGSDKHFDGHRKDTMPIVNSINDAGWQAEVVYYRPEWTEGLFEYVSENFDGYISRVNPGNIPGGERGYFDLLTRLSEAGLVGMSTPEEMMAYGAKDALVKLSQTDLVPSDTEAYYDVETFHKVFPTSLSFGERVLKQNRGSTGSGIWRVQLVDKELAASIEPGTALPLDTEIKCTEAVDNHTEVRKLGEFMDFCDQYIIGDNGMLVDMRFMPRIVEGEIRILLVGPHPVFVVHKKPAEGGDNFSATLFSGAKYTYDKPEQWQELIDLFADARPVIAEKLGGDNIPLIWTADFMLGDVVDGKDTYVLGEINCSCVGFTSELDMGIQQLVASEAIKRIEEFAQLTV” was “not soluble”.
The value for “MEEDQEEPPSSSTSSESPEVVLKAPKAPTRRRKNSKKDRRQDMEVDDGEKESTAQYCKGFYDALRVMQTTNKYEFTGGAVSSPVLPVLQTAAFSPITPASASDMHTIVMSLLGNTPITSGPSIAPLSSPTLLPLVTSGDLDDLSMKILASSAIPGPPIISSSNSPDSSTTAVTTSQITAFQPLLNNFVSSTTASTSRPDKLNLTPPQQSAEIYAFNGVNSDDSDGGLDSRSASRCG” was “not soluble”; that for “MLKQVEIFTDGSCLGNPGPGGYGAILRYRGREKTFSAGYTRTTNNRMELMAAIVALEALKEHCEVILSTDSQYVRQGITQWIHNWKKRGWKTADKKPVKNVDLWQRLDAALGQHQIKWEWVKGHAGHPENERCNELARAAAMNPTLEDTGYQVEV” was “soluble”.
For the sequence “MYKVLRKERLTPKAVLLEVQDERAKLVKPGQYALVQANEESEPIPLSFLDVKESSYTFLVEVGGRATLEIAELVEEKIQFIEAPCGSPFPVKNYGKVLLISKNWGVAPLINIGRALKEESNEIYFVHVAEDEERVFLTKEASEISEEFLLFTEDGSLGEEGNSEWALGYFIENFGKPDLIVSAGSNLDSQMINRFAEERNIPHIAMVNAHILDANGLCLACRVLVEGQEKLACIDGPWFDASKVDWDYAIQKEAFYKEEEEKALKTFLRELQRLKARGR”, the “soluble on expression in E. coli” value is “not soluble”.

For the origin of these results see the DeepSol protein solubility set.
